Columns and labels:
[1] = target: T1, human IL-1β (human, UniProt P01584 117-269); test: cell-based or functional assay
[2] = target: T1, human IL-1β; test: SPR (Biacore 3000), antibody captured, human IL-1β as analyte, 25 C
Experimental: The BIACORE® assay (Biacore, Inc., Piscataway, N.J.) determines the affinity of antibodies with kinetic measurements of on-, off-rate constants. Binding of antibodies to recombinant purified human IL-1β was determined by surface plasmon resonance-based measurements with a Biacore™ 3000 instrument (Biacore™ AB, Uppsala, Sweden) using running HBS-EP (10 mM HEPES [pH 7.4], 150 mM NaCl, 3 mM EDTA, and 0.005% surfactant P20) at 25° C. All chemicals were obtained from Biacore® AB (Uppsala, Sweden) unless otherwise stated. Approximately 5,000 RU of goat anti-mouse IgG, (Fcγ), fragment specific polyclonal antibody (Pierce Biotechnology Inc, Rockford, Ill.) diluted in 10 mM sodium acetate (pH 4.5) was directly immobilized across a CM5 research grade biosensor chip using a standard amine coupling kit according to manufacturer's instructions and procedures at 25 μg/ml. Unreacted moieties on the biosensor surface were blocked with ethanolamine. Modified carboxymethyl dextran surface in flowcell 2 and 4 was used as a reaction surface. Unmodified carboxymethyl dextran without goat anti-mouse IgG in flow cell 1 and 3 was used as the reference surface. For kinetic analysis, rate equations derived from the 1:1 Langmuir binding model were fitted simultaneously to association and dissociation phases of all eight injections (using global fit analysis) with the use of Biaevaluation 4.0.1 software. Purified antibodies were diluted in HEPES-buffered saline for capture across goat anti-mouse IgG specific reaction surfaces. Mouse antibodies to be captured as a ligand (25 μg/ml) were injected over reaction matrices at a flow rate of 5 μl/minute. The association and dissociation rate constants, kₒₙ (unit M⁻¹s⁻¹) and koff (unit s⁻¹) were determined under a continuous flow rate of 25 μl/minute. Rate constants were derived by making kinetic binding measurements at ten different antigen concentrations ranging from 10-200 nM. The equilibrium dissociation constant (unit M) of the reaction between antibodies and the target antigen was then calculated from the kinetic rate constants by the following formula: KD=koff/kₒₙ. Binding is recorded as a function of time and kinetic rate constants are calculated. In this assay, on-rates as fast as 10⁶M⁻¹s⁻¹ and off-rates as slow as 10⁻⁶s⁻¹ can be measured.

[3] = target: T1, human IL-1β; test: ELISA; antibody captured on anti-human Fc, biotinylated human IL-1β titrated
Experimental: To determine if anti-IL-1β mAbs bind to human IL-1β, ELISA plates (Nunc, MaxiSorp, Rochester, N.Y.) were incubated overnight at 4° C. with anti-human Fc antibody diluted in Pierce Coat buffer at 2 μg/ml (Jackson Immunoresearch, West Grove, Pa.). Plates were washed five times in washing buffer (PBS containing 0.05% Tween 20), and blocked for 1 hour at 25° C. with 200 μl per well superblock blocking buffer (Thermo scientific, #37515). Blocking buffer was removed by tapping plates, and 2 μg/ml of each antibody in PBS containing 10% superblock, 0.5% tween-20 was added to the wells at 100 μl per well and incubated at 25° C. for 1 hour. The wells were washed five times in 1×PBST, and 1 μg/ml biotinylated antigen was titrated at 1:6 serial dilutions (for a range of μg to pg in PBS containing 10% superblock, 0.05% tween 20). Each dilution of antigen was then added to the plates and incubated for 1 hour at 25° C. The wells were washed five times in 1×PBST and incubated for 1 hour at 25° C. with polyHRP streptavidin (KPL #474-3000, Gaithersburg, Md.). The wells were washed five times in 1×PBST, and 100 μl of ULTRA-TMB ELISA (Pierce, Rockford, Ill.) were added per well. Following color development the reaction was stopped with 1N HCL and absorbance at 450 nm was measured. The results are shown in Table 9, and the numerical value indicating binding of human anti-IL-1β antibodies to human IL-1β.

| Binder | Potency on Human IL-1β IC50 (pM); inhibition of IL-1β-induced IL-8 production by MRC-5 cells [1] | Kd [2] | koff [2] | kon [2] | EC50 [3] |
| --- | --- | --- | --- | --- | --- |
| humanized anti-human IL-1β antibody 1B12.2 (antibody, V domains shown, Cloned into IgG expression vectors and made as full-length humanized antibody; also called h1B12VH.1a/h1B12VL.1b; combination 2) VH: EVQLQESGPGLVKPSETLSLTCTVSGFSLSDYGVSWIRQPPGKGLEWLGLIWGGGDTYYNSPLKSRLTISKDNSKSQVSLKLSSVTAADTAVYYCAKQRTLWGYDLYGMDYWGQGTLVTVSS VL: ETTVTQSPSSLSASVGDRVTITCITSTDIDVDMNWYQQKPGKPPKLLISQGNTLRPGVPSRFSSSGSGTDFTFTISSLQPEDFATYYCLQSDNLPLTFGQGTKLEIK | 146 pM | 0.147 nM | 0.0009 s⁻¹ | 6.13e+06 M⁻¹ s⁻¹ | 0.0376 nM |
| humanized anti-human IL-1β antibody 1B12.6 (antibody, V domains shown) VH: EVQLVESGGGLVQPGGSLRLSCAVSGFTLSDYGVSWIRQAPGKGLEWLGLIWGGGDTYYNSPLKSRLTISKDNSKSTVYLQMNSLRAEDTAVYYCAKQRTLWGYDLYGMDYWGQGTLVTVSS VL: ETTVTQSPSSLSASVGDRVTITCITSTDIDVDMNWYQQKPGKPPKLLISQGNTLRPGVPSRFSSSGSGTDFTFTISSLQPEDFATYYCLQSDNLPLTFGQGTKLEIK | 378 pM | – | – | – | – |
| humanized anti-human IL-1β antibody 1B12.3 (antibody, V domains shown) VH: EVQLQESGPGLVKPSETLSLTCTVSGFSLSDYGVSWIRQPPGKGLEWLGLIWGGGDTYYNSPLKSRLTISKDNSKSQVSLKLSSVTAADTAVYYCAKQRTLWGYDLYGMDYWGQGTLVTVSS VL: DTVVTQSPAFLSVTPGEKVTITCITSTDIDVDMNWYQQKPDQPPKLLISQGNTLRPGVPSRFSSSGSGTDFTFTISSLEAEDAATYYCLQSDNLPLTFGQGTKLEIK | 303 pM | – | – | – | – |
| humanized anti-human IL-1β antibody 1B12.1 (antibody, V domains shown) VH: EVQLQESGPGLVKPSETLSLTCTVSGFSLSDYGVSWIRQPPGKGLEWLGLIWGGGDTYYNSPLKSRLTISKDNSKSQVSLKLSSVTAADTAVYYCAKQRTLWGYDLYGMDYWGQGTLVTVSS VL: DTQVTQSPSSLSASVGDRVTITCITSTDIDVDMNWYQQKPGKPPKLLISQGNTLRPGVPSRFSSSGSGTDFTFTISSLQPEDFATYYCLQSDNLPLTFGQGTKLEIK | 151 pM | – | – | – | – |

Second part, the binder after the results:

| Potency on Human IL-1β IC50 (pM); inhibition of IL-1β-induced IL-8 production by MRC-5 cells [1] | Kd [2] | koff [2] | kon [2] | EC50 [3] | Binder |
| --- | --- | --- | --- | --- | --- |
| 484 pM | 0.23 nM | 0.00137 s⁻¹ | 5.94e+06 M⁻¹ s⁻¹ | 0.0479 nM | humanized anti-human IL-1β antibody 1B12.8 (antibody, V domains shown, Cloned into IgG expression vectors and made as full-length humanized antibody; also called h1B12VH.2a/h1B12VL.2b; combination 8) VH: EVQLVESGGGLVQPGGSLRLSCAVSGFTLSDYGVSWIRQAPGKGLEWLGLIWGGGDTYYNSPLKSRLTISKDNSKSTVYLQMNSLRAEDTAVYYCAKQRTLWGYDLYGMDYWGQGTLVTVSS VL: ETTVTQSPAFLSVTPGEKVTITCITSTDIDVDMNWYQQKPDQPPKLLISQGNTLRPGVPSRFSSSGSGTDFTFTISSLEAEDAATYYCLQSDNLPLTFGQGTKLEIK |
| 319 pM | 0.231 nM | 0.00144 s⁻¹ | 6.24e+06 M⁻¹ s⁻¹ | 0.0488 nM | humanized anti-human IL-1β antibody 1B12.5 (antibody, V domains shown, Cloned into IgG expression vectors and made as full-length humanized antibody; also called h1B12VH.2a/h1B12VL.1a; combination 5) VH: EVQLVESGGGLVQPGGSLRLSCAVSGFTLSDYGVSWIRQAPGKGLEWLGLIWGGGDTYYNSPLKSRLTISKDNSKSTVYLQMNSLRAEDTAVYYCAKQRTLWGYDLYGMDYWGQGTLVTVSS VL: DTQVTQSPSSLSASVGDRVTITCITSTDIDVDMNWYQQKPGKPPKLLISQGNTLRPGVPSRFSSSGSGTDFTFTISSLQPEDFATYYCLQSDNLPLTFGQGTKLEIK |
| 597 pM | 0.161 nM | 0.00097 s⁻¹ | 6.01e+06 M⁻¹ s⁻¹ | 0.0378 nM | humanized anti-human IL-1β antibody 1B12.4 (antibody, V domains shown, Cloned into IgG expression vectors and made as full-length humanized antibody; also called h1B12VH.1a/h1B12VL.2b; combination 4) VH: EVQLQESGPGLVKPSETLSLTCTVSGFSLSDYGVSWIRQPPGKGLEWLGLIWGGGDTYYNSPLKSRLTISKDNSKSQVSLKLSSVTAADTAVYYCAKQRTLWGYDLYGMDYWGQGTLVTVSS VL: ETTVTQSPAFLSVTPGEKVTITCITSTDIDVDMNWYQQKPDQPPKLLISQGNTLRPGVPSRFSSSGSGTDFTFTISSLEAEDAATYYCLQSDNLPLTFGQGTKLEIK |
| 581 pM | 0.284 nM | 0.00164 s⁻¹ | 5.76e+06 M⁻¹ s⁻¹ | 0.0582 nM | humanized anti-human IL-1β antibody 1B12.7 (antibody, V domains shown, Cloned into IgG expression vectors and made as full-length humanized antibody; also called h1B12VH.2a/h1B12VL.2a; combination 7) VH: EVQLVESGGGLVQPGGSLRLSCAVSGFTLSDYGVSWIRQAPGKGLEWLGLIWGGGDTYYNSPLKSRLTISKDNSKSTVYLQMNSLRAEDTAVYYCAKQRTLWGYDLYGMDYWGQGTLVTVSS VL: DTVVTQSPAFLSVTPGEKVTITCITSTDIDVDMNWYQQKPDQPPKLLISQGNTLRPGVPSRFSSSGSGTDFTFTISSLEAEDAATYYCLQSDNLPLTFGQGTKLEIK |

From patent US20110142761A1 (AbbVie / Abbott, published 2011)
